This note sets out measurements from patent publication US20090068207A1, “Compositions Containing Beta 2-Glycoprotein I-Derived Peptides for the Prevention and/or Treatment of Vascular Disease” (Vascular Biogenics Ltd., priority 2005, published 2009).

Values joined by “and” are separate entries in the source; they are usually repeats but may differ in a detail not shown here. Equal entries are not always repeated. Some results are limits rather than exact numbers.

The subject of test [1] is LDL-RD mice. Briefly: Aortic sinus lesion area after nasal tolerance induction, Western diet. Type of test: in vivo. Particulars: END, intranasal 10 μg/mouse every other day for 5 days, then Western diet, mean ± S.E.
Description: Nasal Tolerance: Nasal tolerance was induced by intranasal administration of oxidized LDL, β2GPI, β2GPI-derived peptides or HSP65, in a total volume of 10 μl PBS. Intranasal administration was performed on mildly sedated mice (12-16 weeks old), each mouse receiving 3 doses of antigen per dose, in the indicated concentrations, every other day. Atherogenesis was induced by 5 weeks of a Western diet initiated on the day following the last intranasal administration, or assessed (in Apo E KO mice) after 8 weeks on a chow diet. Controls received equal amounts of BSA and/or PBS, as indicated, in an identical regimen. Plasma was obtained for assessment of cholesterol and triglyceride levels from all mice, and the mice were sacrificed for evaluation of atherosclerosis, as described hereinbelow, after 5 weeks Western diet, or (in Apo E KO mice) after 8 weeks on a chow diet.
Assessment of Atherosclerosis: Quantification of atherosclerotic fatty streak lesions was done by calculating the lesion size in the aortic sinus as previously described (16) and by calculating the lesion size in the aorta. Briefly, after perfusion with saline Tris EDTA, the heart and the aorta were removed from the animals and the peripheral fat cleaned carefully. The upper section of the heart was embedded in OCT medium (10.24% w/w polyvinyl alcohol; 4.26% w/w polyethylene glycol; 85.50% w/w nonreactive ingredients) and frozen. Every other section (10 μm thick) throughout the aortic sinus (400 μm) was taken for analysis. The distal portion of the aortic sinus was recognized by the three valve cusps that are the junctions of the aorta to the heart. Sections were evaluated for fatty streak lesions after processing and staining with oil-red O, according to Paigen et al (Atherosclerosis, 1987; 68:231-40). Lesion areas per section were scored on a grid (17) by an observer counting unidentified, numbered specimens. The aorta was dissected from the heart and surrounding adventitious tissue was removed. Fixation of the aorta and Sudan staining of the vessels were performed as previously described (21).
Mice were bled prior to feeding (Time 0) and at the conclusion of the experiment (End) for determination of lipid profile. Atherosclerosis was assessed in heart and aorta as described above, 8 weeks after the last feeding. Mice were weighed every 2 weeks during the experiment. All mice were fed water ad libitum and a normal chow-diet containing 4.5% fat by weight (0.02% cholesterol), up to the final antigen exposure, and then a “Western” diet until sacrifice.
Thus, nasal exposure to a low dose and an exceedingly low dose of recombinant human HSP 65 were compared for their effectiveness in suppressing atherogenesis in LDL-RD mice. 58 male 12-16 week old LDL-RD mice were divided into 4 groups.
The test system of test [2] is LDL-RD mice. Briefly: Aortic sinus lesion area after intraperitoneal immunization with incomplete Freund's adjuvant. Type of test: in vivo. Particulars: End, intraperitoneal with incomplete Freund's adjuvant, head 100 μg, mean ± S.E. How it is done: Intraperitoneal immunization with human β2GPI-derived peptides: human β2GPI-derived peptides were dissolved in PBS and mixed with equal volumes of Freund's incomplete adjuvant. […] One week following the last immunization, the diet was switched from chow to atherogenic “Western” diet for five weeks, and then the mice were sacrificed.
Assessment of Atherosclerosis: Quantification of atherosclerotic fatty streak lesions was done by calculating the lesion size in the aortic sinus as previously described (16) and by calculating the lesion size in the aorta. Briefly, after perfusion with saline Tris EDTA, the heart and the aorta were removed from the animals and the peripheral fat cleaned carefully. The upper section of the heart was embedded in OCT medium (10.24% w/w polyvinyl alcohol; 4.26% w/w polyethylene glycol; 85.50% w/w nonreactive ingredients) and frozen. Every other section (10 μm thick) throughout the aortic sinus (400 μm) was taken for analysis. The distal portion of the aortic sinus was recognized by the three valve cusps that are the junctions of the aorta to the heart. […] Lesion areas per section were scored on a grid (17) by an observer counting unidentified, numbered specimens. The aorta was dissected from the heart and surrounding adventitious tissue was removed. Fixation of the aorta and Sudan staining of the vessels were performed as previously described (21). […]

A further test relates to ApoE-KO mice. Briefly: Aortic sinus lesion area after oral administration in ApoE-KO mice. The class given is in vivo. An excerpt:
Assessment of Atherosclerosis: Quantification of atherosclerotic fatty streak lesions was done by calculating the lesion size in the aortic sinus as previously described (16) and by calculating the lesion size in the aorta. Briefly, after perfusion with saline Tris EDTA, the heart and the aorta were removed from the animals and the peripheral fat cleaned carefully. The upper section of the heart was embedded in OCT medium (10.24% w/w polyvinyl alcohol; 4.26% w/w polyethylene glycol; 85.50% w/w nonreactive ingredients) and frozen. Every other section (10 μm thick) throughout the aortic sinus (400 μm) was taken for analysis. The distal portion of the aortic sinus was recognized by the three valve cusps that are the junctions of the aorta to the heart. […] Lesion areas per section were scored on a grid (17) by an observer counting unidentified, numbered specimens. The aorta was dissected from the heart and surrounding adventitious tissue was removed. Fixation of the aorta and Sudan staining of the vessels were performed as previously described (21).
In order to determine the protective effect of mucosal administration of β2GPI on development of atherosclerosis, adult ApoE-KO mice were treated with oral administration of human β2GPI. 20 week-old male ApoE-KO mice, having advanced atherosclerotic lesions were treated monthly with human β2GPI (50 μg/dose) or PBS (0.2 ml) in 5 oral administrations (by gavage, as described hereinabove) given every other day, for four months. Lesion area calculated from cryosections of the aortic sinus were compared between control untreated 20 week old mice, and mice following 16 weeks oral administration of β2GPI or PBS.
10-11 week-old male ApoE-KO mice, having early atherosclerotic lesions, were treated with 5 oral administrations (by gavage, as described hereinabove) given every other day of human β2GPI peptide S-4 (SEQ ID NO: 14) or human β2GPI (50 μg/dose) or PBS (0.2 ml). Lesion areas calculated from cryosections of the aortic sinus were compared between control untreated, human β2GPI treated and S-4 human β2GPI-derived peptide treated mice at 8 weeks following the last oral administration of the antigens, or of PBS.

Test [3] deals with inguinal lymph node cells. Briefly: Lymph node cell proliferation (stimulation index) to sensitizing antigen β2GPI after mucosal administration. The class given is in vivo, mice. Conditions: then immunization with human β2GPI, LDL-RD mice. On the procedure: Immunization: Subcutaneous immunization with human β2GPI: Human β2GPI was prepared from human plasma pool as described above. For immunization, human β2GPI was dissolved in PBS and mixed with equal volumes of Freund's incomplete adjuvant. Immunizations were performed by single subcutaneous injection of 10 μg antigen/mouse in 0.1 ml volume. Three days following the last mucosal administration of plaque associated molecules the mice received one immunization, and were sacrificed 10 days post immunization.
Proliferation assays: Mice were exposed to the tested antigen as described for assessment of atherosclerosis, and then immunized (one to three days following the last exposure) subcutaneously with 10 μg β2GPI in 0.1 ml PBS, prepared from purified human β2GPI as described above.
Proliferation was assayed ten days after immunization with the β2GPI as follows: Draining inguinal lymph nodes were prepared by mashing the tissues on 100 mesh screens. Red blood cells were lysed with cold sterile double distilled water (6 ml) for 30 seconds and 2 ml of NaCl 3.5% was added. Incomplete medium was added (10 ml), cells were centrifuged for 7 min at 1,700 rpm, resuspended in RPMI medium and counted in a haemocytometer at 1:20 dilution (10 μl cells+190 μl Trypan Blue). Proliferation was measured by the incorporation of [^3H] Thymidine into DNA in triplicate samples of 100 μl of the packed cells (1×10^6 cells/ml) in a 96 well microtiter plate. […] Thymidine (0.5 μCi/well) was added. After an additional 12-24 hours of incubation the cells were harvested and transferred to glass fiber filters using a cell harvester (Brandel) and counted using β-counter (Lumitron). Proliferation was measured by the incorporation of [^3H] thymidine into DNA during the final 12 h of incubation. The results are expressed as the stimulation index (S.I.): the ratio of the mean radioactivity (cpm) of the antigen to the mean background (cpm) obtained in the absence of the antigen. Standard deviation was always <10% of the mean cpm.
Tolerance induced by mucosal exposure to plaque-associated molecules may be mediated by suppression of specific immune responses to antigenic portions (epitopes) of these plaque associated molecules. Lymphocyte proliferation in response to mucosal (nasal and oral) exposure to human β2GPI was measured in […]. 9 male, 5 week old LDL-RD mice were divided into 3 groups. In group A (n=3) oral tolerance was induced with 100 μg/mouse β2GPI suspended in 0.1 ml PBS, administered by gavage, as described above, every other day for 5 days. In group B (n=3) nasal tolerance was induced with 10 μg/mouse β2GPI suspended in 10 μl PBS, administered intranasally as described above, every other day for 5 days. The mice in group C (n=3) received oral administration of 200 μl PBS every other day for 5 days. Immune reactivity was stimulated in all mice by immunization with human β2GPI as described above in the Materials and Methods section, one day after the last feeding. Ten days after the immunization lymph nodes were collected for assay of proliferation (as expressed in the Stimulation Index SI). All mice were fed normal chow-diet containing 4.5% fat by weight (0.02% cholesterol) and water ad libitum.

B1: Human β2 GPI: human beta2-glycoprotein I (SEQ ID NO: 10) purified from serum (protein)
chain: MISPVLILFSSFLCHVAIAGRTCPKPDDLPFSTVVPLKTFYEPGEEITYSCKPGYVSRGGMRKFICPLTGLWPINTLKCTPRVCPFAGILENGAVRYTTFEYPNTISFSCNTGFYLNGADSAKCTEEGKWSPELPVCAPIICPPPSIPTFATLRVYKPSAGNNSLYRDTAVFECLPQHAMFGNDTITCTTHGNWTKLPECREVKCPFPSRPDNGFVNYPAKPTLYYKDKATFGCHDGYSLDGPEEIECTKLGNWSAMPSCKASCKLPVKKATVVYQGERVKIQEKFKNGMLHGDKVSFFCKNKEKKCSYTEDAQCIDGTIEVPKCFKEHSSLAFWKTDASDVKPC
Consider B1, for which the “Aortic sinus lesion (μm^2)” value in the test with LDL-RD mice [1] was found to be 46250 ± 4486 μm^2; in the test with LDL-RD mice [2], 36782 ± 5962 μm^2; in the test on ApoE-KO mice (End, oral 50 μg, 5 doses, ApoE-KO mice), 90833 ± 9502 μm^2. In the test with ApoE-KO mice (oral 50 μg, 5 doses, then 8 weeks of chow diet, 10-11 week-old ApoE-KO mice), the “reduction of progression of atherosclerotic lesions compared to PBS controls” value is 47%. For the same molecule, in the test with ApoE-KO mice (oral 50 μg/dose, 5 administrations monthly for four months, 20 week-old ApoE-KO mice, 16 weeks), the “inhibition of progression of atherosclerotic lesions as compared to PBS control” value was > 30% and 35%. In addition, the entries for the “S.I (Stimulation Index)” value in test [3] (nasal 10 μg/mouse every other day for 5 days) and in test [3] (oral 100 μg/mouse every other day for 5 days) were 2.1 ± 0.5 and 4.4 ± 0.5, respectively.
